From the supplement of paper PMC9170038

Tested on: MS2 coat protein
Assay: apparent KD of MS2 coat protein; designed switch direction (-1 OFF switch, 1 ON switch): -1; higher = weaker reporter binding
Outline: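 Stalled E. coli RNA polymerase transcribed designed RNA switches on Illumina chips, which were then titrated with SNAP-549-labelled MS2 coat protein, doubling from 0.7 or 1.5 nM to 3 µM. Steps lasted from 0.8–1.5 h at the lowest concentration to 10–20 min at the highest. The apparent KD is each design's median over clusters of curve-fitted normalised fluorescence.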

[1] = input ligand: microRNA oligo, concentration not stated
[2] = Eterna round: R95, input ligand: FMN 200 uM
[3] = Eterna round: R95, input ligand: microRNA oligo, concentration not stated
[4] = Eterna round: R95, input ligand: none

With “AGUACUAACACGAAAGUGUUAGUACUAUAAGCUUGUGAUACAUGAGGAUCACCCAUGUCCUCAUAAGCUCGUCUUAU [Mat - Sensor v3 - Turn-off var 2 - D101] (Eterna round: R96, puzzle: Sensor v3, turn-off variant 2)” the “apparent KD of MS2 coat protein” value (input ligand: FMN 200 uM) was 21.1 nM, the “apparent KD of MS2 coat protein” value [1] was 477 nM and the “apparent KD of MS2 coat protein” value (input ligand: none) was 21.7 nM.

For “AGUACUAACACGAAAGUGUUAGUACUAUAAGCUUGUGAUACAUGAGGAUCACCCAUGUCCUCAUAAGCUCGUCUUAU [Mat - Sensor v3 - Turn-off var 2 - D101] (puzzle: Sensor v3, turn-off variant 2)”, the “apparent KD of MS2 coat protein” value [2] was 19 nM, the “apparent KD of MS2 coat protein” value [3] was 1820 nM and the “apparent KD of MS2 coat protein” value [4] was 19.6 nM.

With “AGUACUAACACGAAUGUGUUAGUACAAUAAGCUUGUGAAACAUGAGGAUCACCCAUGUCCUCAUAAGCUCGUCUUAU [salish99_TOv2_r3_032] (puzzle: Sensor v3, turn-off variant 2)” the “apparent KD of MS2 coat protein” value [2] was 16.3 nM, the “apparent KD of MS2 coat protein” value [3] was 779 nM and the “apparent KD of MS2 coat protein” value [4] was 15.5 nM.

“AGUACUAACACGAGAGUGUUAGUACUAUAAGCUUGUGUUACAUGAGGAUCACCCAUGUCCUCAUAGGCUCGUCUUAA [Mat - Sensor v3 - Turn-off var 2 - D82] (puzzle: Sensor v3, turn-off variant 2)” was tested, and the “apparent KD of MS2 coat protein” value [2] was 75.8 nM, the “apparent KD of MS2 coat protein” value [3] was 75.5 nM and the “apparent KD of MS2 coat protein” value [4] was 81.4 nM.

With “AGUACUAACACGAUAGUGUUAGUACAAUAAGCUUGUGUUACAUGAGGAUCACCCAUGUCCUCAUAAGCUCGUCUUAA [Mat - Sensor v3 - Turn-off var 2 - D59] (puzzle: Sensor v3, turn-off variant 2)” the “apparent KD of MS2 coat protein” value [2] was 44.3 nM, the “apparent KD of MS2 coat protein” value [3] was 594 nM and the “apparent KD of MS2 coat protein” value [4] was 35.3 nM.

In the case of “AGUACUAACACGCCAGUGUUAGUACAAUAAGCUUGUGAAACAUGAGGAUCACCCAUGUCCUCAUAAGCUCGUCUUAU [salish99_TOv2_r3_028] (puzzle: Sensor v3, turn-off variant 2)”, the “apparent KD of MS2 coat protein” value [2] is reported as 16.9 nM, the “apparent KD of MS2 coat protein” value [3] is reported as 677 nM and the “apparent KD of MS2 coat protein” value [4] is reported as 15.1 nM.

For “AGUACUAUCACGAAAGUGAUAGUACAAAAUAACAAGUGAACAUGAGGAUCACCCAUGUCCUCAUUUGCUCGUCUUAU [Sensor 3 - 18] (puzzle: Sensor v3, turn-off variant 2)”, the “apparent KD of MS2 coat protein” value [2] was 418 nM, the “apparent KD of MS2 coat protein” value [3] was 925 nM and the “apparent KD of MS2 coat protein” value [4] was 421 nM.

“AGUACUAUGCGAGCUGACUUGCGUAGUGCAGCAGGUGGAACAUGAGGAUCACCCAUGUCCUCAUUUGCUCGUCUUAA [Mat - Sensor v3 - Turn-off var 2 - D5] (puzzle: Sensor v3, turn-off variant 2)” was tested, and the “apparent KD of MS2 coat protein” value [2] was 27.4 nM, the “apparent KD of MS2 coat protein” value [3] was 109 nM and the “apparent KD of MS2 coat protein” value [4] was 29.8 nM.

With “AGUACUAUGCGUGCUGACAUGCGUAGUGCAGCAGGUGUUACAUGAGGAUCACCCAUGUCCUCAUUUGCUCGUCUUAU [Mat - Sensor v3 - Turn-off var 2 - D15] (puzzle: Sensor v3, turn-off variant 2)” the “apparent KD of MS2 coat protein” value [2] was 75.7 nM, the “apparent KD of MS2 coat protein” value [3] was 79.2 nM and the “apparent KD of MS2 coat protein” value [4] was 80.4 nM.

With “AGUCAGAGAGGAUAUACAUGGGAAAAAAAAGUAAGAUCCCUACAUGAGGAUCACCCAUGUAGAAGGCUCUGACA [Ex2 Design 139: Sub-opt 3] (Eterna round: R96, puzzle: Exclusion 2)” the “apparent KD of MS2 coat protein” value [1] was 17.3 nM.

For “AGUCGAAAGACCCACAUGGACAUGAGGAUCACCCAUGUGCAAGCCUUUUGCUCGUCAGCUAGGUCAAAAGACCUAGC [JL Omei mod 1] (Eterna round: R97, puzzle: Sensor, turn-off variant 1)”, the “apparent KD of MS2 coat protein” value (input ligand: FMN 200 uM) was 655 nM and the “apparent KD of MS2 coat protein” value (input ligand: none) was 813 nM.

For “AGUCUGCGAGGAUAUACAUGAGGAUCACCCAUGUGCGAAGAACUAGUGAGGUCGAUUGGUAGAAGGCGCGGACA [Mat - Exclusion 3 - Mod of JL D88] (puzzle: Exclusion 3)”, the “apparent KD of MS2 coat protein” value [3] was 241 nM.

“AGUGCGUAUGUGAGGAUAUGCUGGUCCUUGGCUCGGCAGAAGGCACAUGAGGAUCACCCAUGUGGUGUCGUACC [salish99_Bmod_ex4_059] (puzzle: Brourd's mod of Exclusion 4)” was tested, and the “apparent KD of MS2 coat protein” value [3] was 25 nM.

For “AGUGCGUAUGUGAGGAUAUGCUGGUCCUUGGCUCGGCAGAAGGCACAUGAGGAUCACCCAUGUGGUGUCGUACU [salish99_Bmod_ex4_066] (puzzle: Brourd's mod of Exclusion 4)”, the “apparent KD of MS2 coat protein” value [3] was 148 nM.

In the case of “AGUGCUGCAGGAUAUUCUAUUAAUUACAUGAGGAUCACCCAUGUGAAUGGACAAGGGUGUGAAGAAGGGUGGUGCG [Omei Ex5 A17h] (Eterna round: R97, puzzle: Exclusion 5)”, the “apparent KD of MS2 coat protein” value (input ligand: FMN 200 uM) is reported as 375 nM and the “apparent KD of MS2 coat protein” value (input ligand: none) is reported as 605 nM.

“AGUGCUGGCGCGUCGGUGUUGGUACAAUAAGCUUGUGAAACAUGAGGAUCACCCAUGUCCUCAUAAGCUCGUCUUAU [salish99_TOv2_r2_084] (puzzle: Sensor v3, turn-off variant 2)” was tested, and the “apparent KD of MS2 coat protein” value [2] was 17.6 nM, the “apparent KD of MS2 coat protein” value [3] was 553 nM and the “apparent KD of MS2 coat protein” value [4] was 16.9 nM.

“AGUGGGCUAGGAUAUCGAUGAACUCACAUGAGGAUCACCCAUGUGUCUUCGGUGGGCGCGCGAGAAGGAGUGAGAU [Belaange] (puzzle: Exclusion 5)” was tested, and the “apparent KD of MS2 coat protein” value [2] was 63.6 nM, the “apparent KD of MS2 coat protein” value [3] was 26.9 nM and the “apparent KD of MS2 coat protein” value [4] was 37.9 nM.

With “AGUGUGUGGCAGGAUAUGCGAUUUAUAGGUGAAGCAGAAGGGUCUACAUGAGGAUCACCCAUGUGUGCGGUUGA [Ex6 #21] (Eterna round: R97, puzzle: Exclusion 6)” the “apparent KD of MS2 coat protein” value (input ligand: FMN 200 uM) was 318 nM and the “apparent KD of MS2 coat protein” value (input ligand: none) was 160 nM.

In the case of “AGUUAGAUAGGAUAUGCCCGAGAUAACAUGAGGAUCACCCAUGUGACCGAAUCUAUUCUAGCAGAAGGGUUUAGGA [Mod of ViennaUCT 18 - Jieux - Exclusion 5] (Eterna round: R97, puzzle: Exclusion 5)”, the “apparent KD of MS2 coat protein” value (input ligand: FMN 200 uM) is reported as 23.6 nM and the “apparent KD of MS2 coat protein” value (input ligand: none) is reported as 31.3 nM.

“AGUUGGCGAGGAUAUACAUGAGGAUCACCCAUGUGAAAUCCAAGUGAGGAAAUGAAAAGUAGAAGGCGCUGACA [Mod of Mat 23 - Jieux - Exclusion 3] (Eterna round: R97, puzzle: Exclusion 3)” was tested, and the “apparent KD of MS2 coat protein” value (input ligand: FMN 200 uM) was 50 nM and the “apparent KD of MS2 coat protein” value (input ligand: none) was 20.8 nM.

“AGUUGGCGAGGAUAUACAUGAGGAUCACCCAUGUGAGAGAAUAAAGUGAGGAAGAAAAGUAGAAGGCGCUGACG [Mat - Exclusion 3 - Mod of Salish D7] (puzzle: Exclusion 3)” was tested, and the “apparent KD of MS2 coat protein” value [2] was 61.1 nM, the “apparent KD of MS2 coat protein” value [3] was 52 nM and the “apparent KD of MS2 coat protein” value [4] was 53.8 nM.

With “AUAAAAGCAGGAUAUGCGCGGUGUGAUGCCGCAUGCUCGUCACAUGAGGAUCACCCAUGUAGAAGGGCUAAAUG [Diramadidi] (Eterna round: R97, puzzle: Exclusion 2)” the “apparent KD of MS2 coat protein” value (input ligand: FMN 200 uM) was 19.3 nM and the “apparent KD of MS2 coat protein” value (input ligand: none) was 15.6 nM.

In the case of “AUAAAGAACUCAGGAUAUUAGAGAAACGGACAUGAGGAUCACCCAUGUGCGCCUGAUGCCGAGAAUAAGAAGGGAGAAUAGAAA [Rearbi] (Eterna round: R96, puzzle: Exclusion NG 2)”, the “apparent KD of MS2 coat protein” value (input ligand: FMN 200 uM) is reported as 131 nM, the “apparent KD of MS2 coat protein” value [1] is reported as 16.7 nM and the “apparent KD of MS2 coat protein” value (input ligand: none) is reported as 27.4 nM.

With “AUAAAGCAAGCAUGAUCCCACAUGAGGAUCACCCAUGUGUUCGUCUUAUAGGCUGCUGAGGCUUUUGCCUCGGUGGC [LRO Sensor-off var1-06 loose mod of D91 from Mat747] (Eterna round: R97, puzzle: Sensor, turn-off variant 1)” the “apparent KD of MS2 coat protein” value (input ligand: FMN 200 uM) was 69 nM and the “apparent KD of MS2 coat protein” value (input ligand: none) was 67.9 nM.

“AUAAAUCAUGUAGGAUAUGCGUGGCGAAGCUAUGCAGAAGGACAUGAGGAUCACCCAUGUGCUUCCGUCUGCGUACAGACGGAA [Mat - Exclusion NG 1 - Mod of JL - D35] (Eterna round: R96, puzzle: Exclusion NG 1)” was tested, and the “apparent KD of MS2 coat protein” value (input ligand: FMN 200 uM) was 64.8 nM, the “apparent KD of MS2 coat protein” value [1] was 228 nM and the “apparent KD of MS2 coat protein” value (input ligand: none) was 190 nM.

In the case of “AUAAGCUUUUAAAUCCUUAACAUGAGGAUCACCCAUGUUCGUCUUAUGAUGGUCUGAUCCCUGAGGAUCGGACCGUU [JL-sv1-2.03 Brourd Mod] (puzzle: Sensor v3, turn-off variant 1)”, the “apparent KD of MS2 coat protein” value [2] is reported as 29.2 nM, the “apparent KD of MS2 coat protein” value [3] is reported as 95 nM and the “apparent KD of MS2 coat protein” value [4] is reported as 30.9 nM.

For “AUAAGUGAUAAGGAUAUUACUAGCUUCGGCUAGUGAGAAGGUAUCACAUGAGGAUCACCCAUGUGUUCCAAUAA [Ex6/7-B1] (Eterna round: R97, puzzle: Exclusion 6)”, the “apparent KD of MS2 coat protein” value (input ligand: FMN 200 uM) was 270 nM and the “apparent KD of MS2 coat protein” value (input ligand: none) was 119 nM.

In the case of “AUAAUGUAAGGAUAUCAGUCGACUAGCGAUAGCUAGUCGACUGAGAAGGUACAUGAGGAUCACCCAUGUGAAUA [E4/16-A4] (Eterna round: R97, puzzle: Exclusion 4)”, the “apparent KD of MS2 coat protein” value (input ligand: FMN 200 uM) is reported as 213 nM and the “apparent KD of MS2 coat protein” value (input ligand: none) is reported as 46 nM.

In the case of “AUAAUGUAAGGAUAUCAGUCGACUAGCUGCGGCUAGUCGACUGAGAAGGUACAUGAGGAUCACCCAUGUGAUUA [E4/10-A3] (Eterna round: R97, puzzle: Exclusion 4)”, the “apparent KD of MS2 coat protein” value (input ligand: FMN 200 uM) is reported as 889 nM and the “apparent KD of MS2 coat protein” value (input ligand: none) is reported as 138 nM.

For “AUAAUGUAAGGAUAUCAGUCGUUAAUAAUUUAAUAAUCGACUGAGAAGGUACAUGAGGAUCACCCAUGUGAUCA [E4/8-B1] (Eterna round: R97, puzzle: Exclusion 4)”, the “apparent KD of MS2 coat protein” value (input ligand: FMN 200 uM) was 350 nM and the “apparent KD of MS2 coat protein” value (input ligand: none) was 930 nM.

For “AUAAUGUCAGGAUAUCAGUCGACUAGCCUCGGCUAGUCGACUGAGAAGGGACAUGAGGAUCACCCAUGUGUUUC [E4/14-A2] (Eterna round: R97, puzzle: Exclusion 4)”, the “apparent KD of MS2 coat protein” value (input ligand: FMN 200 uM) was 811 nM and the “apparent KD of MS2 coat protein” value (input ligand: none) was 569 nM.

“AUAAUGUCAGGAUAUCAGUCGUACAGCCUCGGCUGUACGACUGAGAAGGGACAUGAGGAUCACCCAUGUGGUUA [E4/7-A2] (Eterna round: R97, puzzle: Exclusion 4)” was tested, and the “apparent KD of MS2 coat protein” value (input ligand: FMN 200 uM) was 34.2 nM and the “apparent KD of MS2 coat protein” value (input ligand: none) was 562 nM.

With “AUAAUGUCAGGAUAUCAGUCGUACAGCUUCGGCUGUACGACUGAGAAGGGACAUGAGGAUCACCCAUGUGGUUA [E4/7-A1] (Eterna round: R97, puzzle: Exclusion 4)” the “apparent KD of MS2 coat protein” value (input ligand: FMN 200 uM) was 36.4 nM and the “apparent KD of MS2 coat protein” value (input ligand: none) was 228 nM.
